The values that follow come from PMC13393422, “Cross-regulation of amino acid synthesis and anaerobic electron transfer by MetR-mediated methionine signaling”.

Series [1] deals with T1, MetR (C-his-MetR) (Shewanella oneidensis MR-1, UniProt Q8EIM1 1-301).
T1 sequence: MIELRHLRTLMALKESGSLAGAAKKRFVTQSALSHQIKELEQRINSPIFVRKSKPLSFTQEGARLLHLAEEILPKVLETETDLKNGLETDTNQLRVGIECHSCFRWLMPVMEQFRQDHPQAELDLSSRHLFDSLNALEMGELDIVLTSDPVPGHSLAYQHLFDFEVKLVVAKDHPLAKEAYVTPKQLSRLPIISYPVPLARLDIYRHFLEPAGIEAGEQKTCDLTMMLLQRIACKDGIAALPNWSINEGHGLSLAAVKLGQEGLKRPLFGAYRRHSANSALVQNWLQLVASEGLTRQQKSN
In words: EMSA; 4 mM hCys; 500 ng MetR; 50 mM Tris-HCl pH 8.0, 0.5 mM EDTA, 2 mM MgSO4, 1 mM DTT, 100 ug/mL BSA, 10 ug/mL poly(dI-dC), 4 mM hCys, 20% glycerol, 1 nM Cy3 probe, 20 uL; 20 C 10 min; gel. As to conditions: protein: recombinant, tags: C-terminal His tag (pET-26b(+), NdeI/XhoI), chain copies: 4, label: 5'-Cy3 on strand 2.

Series [2] deals with T1, MetR (C-his-MetR). Kind of series: EMSA; 4 mM hCys; 0-250 ng MetR (4B), 500 ng (4C); 50 mM Tris-HCl pH 8.0, 0.5 mM EDTA, 2 mM MgSO4, 1 mM DTT, 100 ug/mL BSA, 10 ug/mL poly(dI-dC), 4 mM hCys, 20% glycerol, 1 nM Cy3 probe, 20 uL; 20 C 10 min; gel. As to conditions: protein: recombinant; tags: C-terminal His tag (pET-26b(+), NdeI/XhoI); chain copies: 4; label: 5'-Cy3 on strand 2; blunt.

Series [3] deals with T1, MetR (C-his-MetR). In words: competition; 4 mM hCys; 5,000-fold excess over labeled omcA probe, shift disappeared; 50 mM Tris-HCl pH 8.0, 0.5 mM EDTA, 2 mM MgSO4, 1 mM DTT, 100 ug/mL BSA, 10 ug/mL poly(dI-dC), 4 mM hCys, 20% glycerol, 1 nM Cy3 probe, 20 uL; 20 C 10 min; gel. As to conditions: protein: recombinant; tags: C-terminal His tag (pET-26b(+), NdeI/XhoI); chain copies: 4; label: none; blunt.

B1: dmsE probe (dsDNA)
DNA 1: CTTATGGTGTTTTTGAGAATGATTTTCTTTTATTTGATTTC
DNA 2: GAAATCAAATAAAAGAAAATCATTCTCAAAAACACCATAAG
B1: in the series with MetR (C-his-MetR) [1] (blunt), the binding result is reported as “binds”.

B2: metR probe (dsDNA)
DNA 1: GATTTCAAGCGCAACATGAGCGAAATTCACTTGGAGTGATC
DNA 2: GATCACTCCAAGTGAATTTCGCTCATGTTGCGCTTGAAATC
Take B2: in the series with MetR (C-his-MetR) [1] (blunt), the binding result is “binds”.

B3: omcA-m probe (dsDNA)
DNA 1: CCACACATTAAATACGACTAAGGGGATTTGGGGGTATTTG
DNA 2: CAAATACCCCCAAATCCCCTTAGTCGTATTTAATGTGTGG
In the case of B3, the binding result in the series with MetR (C-his-MetR) [1] (blunt) was “no binding”.

B4: cymA probe (dsDNA)
DNA 1: GTATTAGCTGGAGTTGAAGTACTCTAACGCTCTGCTAAGC
DNA 2: GCTTAGCAGAGCGTTAGAGTACTTCAACTCCAGCTAATA
B4: the binding result with MetR (C-his-MetR) [1] (5' overhang 1 nt on strand 1 as printed (strand 2 is 39 nt; text says 40 bp)) is recorded as “binds”.

B5: glyA probe (dsDNA)
DNA 1: CTCAACTCGGCATTGAGGTGCATTCAAGTTAAAACTGTAG
DNA 2: CTACAGTTTTAACTTGAATGCACCTCAATGCCGAGTTGAG
B5: the binding result in the series with MetR (C-his-MetR) [1] (blunt) is “binds”.

B6: luxS probe (dsDNA)
DNA 1: GCATCTGACTGATATGAGATGATTTCATCTTAAGTTATC
DNA 2: GATAACTTAAGATGAAATCATCTCATATCAGTCAGATGC
On to B6, for which the binding result in the series with MetR (C-his-MetR) [1] (blunt) is “binds”.

B7: omcA probe (dsDNA)
DNA 1: CCACACATTAAATACGACTAATGAGATTTGTTCTTATTTG
DNA 2: CAAATAAGAACAAATCTCATTAGTCGTATTTAATGTGTGG
As for B7, in the series with MetR (C-his-MetR) [2], the binding result is listed as “binds”.

B8: omcA probe, unlabeled competitor (dsDNA)
DNA 1: B7 DNA 1
DNA 2: B7 DNA 2
For B8, the binding result with MetR (C-his-MetR) [3] is listed as “binds”.
